Measurements reported in the domain aggregation screens of Martell et al. (2025).

Assay: soluble fraction after stress (log2 fold change); higher = more stays soluble; pooled small domains, quantitative proteomics
Conditions: stress: pH 4
Method in brief: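 Pooled custom libraries of small protein domains were stressed at pH 4 and then measured by high-throughput quantitative proteomics. The fold change in the amount of each domain that stays soluble after the acid stress serves as a measure of aggregation propensity. Fold changes are given on a log2 scale, and higher values mean more of the domain stayed soluble.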

Row | Sequence | soluble fraction (log2)
1 | HMEMKMGHIISKLRYESGYSQVELAEKIGITKGAVGMYETDKRKPDYDTLIKLADLFNVSTDYLLS | -1.31
2 | HMEMNDFETLRDMYLTGKIWNVGDIVEANGVRGKVIRKGTNYLSFVDEDNKVHKAWLYDIEE | -0.429
3 | HMEMSLGEKLKQARLTKNFSQEYMAEVLQISQKTYSNFENNKTKPDFSQIEEISKVLETSILEFLT | -0.0931
4 | HMEMTGAHLRKKIRAKGFTFQQIADAIGESKQNLSQILSTNNIKTGTLERIAAAMGESVSYF | 0.167
5 | HMENDYTQAQFVQDLDSGVVREVIIIPNREAPTGYARVVFGDVVRELYATDIREVEALAREHGYEPTVED | -0.499
6 | HMENFDNIFDQRLMPSLFIIRNINQAIENNNNNKFLLNSTISMKDKHWIEIHPHHLKLIISGYQT | -0.54
7 | HMENIEVDFGVGDTVSVIGGAWKDTVGVVQAMNPNKQSLTINVELFGRETPVEISFTDVQKM | -0.962
8 | HMENINIRNMGIRAVEAAIISLSPDQRTFTWGATNKKLVTVPYEENPYSALAAFFKTDDGIEIYDAIEKRL | -0.881
9 | HMENNNIAFSKFLEEVDSGRVVQVEIQGNNISGTLSDGSKFKTYSPNYPDLVSKLSEKNVSIIASPV | 0.166
10 | HMENPLVEVVVPVLNEERILKANIETLHHFLRTQPGFNFRITIADNGSTDKTQAIANDLTNSHAVIRV | -0.441
11 | HMENPMIEQLKQFIEAQGLTQGQLAAKLGVSTATVNQYLQGKYKGDTAALDAKAAQLMARSREK | 0.175
12 | HMENRILIPTAENIGERLDRYISSELDAPRSQVQIWIDSGLVAVSGGLKPKNYRLREGDEIEVTIPDPV | -0.0637
13 | HMENRLREVRDEIATRHGILPTVFINDRVLMNIHSKKPKDVSQLWQVDGISDEFIMKYGPEFIAEYKKKAK | -0.59
14 | HMENRREYQKAIDYLSDQIRAGTLTVGSRLPTERAIAEALGISRNSTREALRTMENMGMIESKQGSGHYLT | -0.0814
15 | HMENTELIELRKKRNLSQSQLAELLDLTRNQIANYESGRRIPDQETKQIIAGFFEMPAEEIFAG | -0.0656
16 | HMENTFNENLRRIRKEKKITQEQLAEFVGVSPQAVSKWEMNSFPDASLLPKIAEKLEVSIDELFGLK | -0.225
17 | HMENTVVMPNLLGKTMTEAKIELKDLSISITLKGSENSSQYAAGQIISQSVDSGTRVAVGSSVEVTIAGS | -0.0377
18 | HMENVIYGINGPVVTVRNSRSFSMMEMVFVGNERLVGEVIGITDKITTIQVYEETTGLRPGEPVYGTGSPM | -0.842
19 | HMENVRKTEWVTISNDKSQTRTTVYFESGNQKLDKHPQIQGFEYQRTYVEGGVKYYLFVEKGTKLDE | 0.0865
20 | HMENYGEAITYIHGMIEDSSEKMLAASKALKVNANTLIKFMKDPYSVAAHIRDRIVENLANLEKAVKAI | -0.59
21 | HMENYYMPVVAGQSEQDAKSMLNAMKLSLSIQVQEQESDSVAKGLAIGTSPAAGSQIRKGSSVILYISKGA | 0.16
22 | HMEPALYRLFMAHPELNASAVARRLGIAQSLLAQYISGSKKPSPERERMILTEIHKIGEELATAS | 0.102
23 | HMEPAPPPAAPPADPELQKRIDKLVEYIGKNGPEFEAVIRDKQHDNPDYAFVFGGEGHAYYRYLLWLLPRP | -0.287
24 | HMEPELLTTKQVASVMNIGEERARAILLSRGVQPVSLPWGKERKTLRWSRRAVMTVIDTLHAEAQAKAGV | 0.18
25 | HMEPLPDIPRGTRVSHQTAPADGDMPERRETGWTMTEPIRAQDGLAYVGVSVYGRGVVMLPVNSLSII | -0.557

Row | Sequence | soluble fraction (log2)
26 | HMEPSAQEIANKLLGHVKSLGLPITGLSISYNSTSDLATVRGQVQSQADREKIILAVGNVDHVAKVDDQLT | -0.0387
27 | HMEPSQEFSLADMVAYDLTGYPKSAALRAAVGASLGIGYGNAKQFVYRLNHYGISKDDFHRAAQEALDGL | 0.057
28 | HMEPTAEQLKAIRQFASVNGRSWKSELRYLWETGAYHRAALGGADPGYLQQVRNQFGPGWLRAFKISK | -0.113
29 | HMEPTPREIVVQQLGYRGLEVLGNAEYQFPKETQIIILKLAELISSGSVTETLEGGKLLALFRGVGINVR | -1.36
30 | HMEPVQPVMYSEFIESVERGEVVEATIQGDKIIATDRSGNRYTVVGSAKDPQLVGQLLERNVAFKFVEE | -0.971
31 | HMEQAMIVILKENPDRRQLEFLTGWLQKQQIGIHISEGAHQTVLGLVGDATRLDIDMLKQMEIVEDVKRVQ | -0.953
32 | HMEQGDTQQEIREKILNLLADGERHMITELKNIRTDQPIDDDKIVGKTLKTLLDEEEVYMDGSYIQLNG | -0.997
33 | HMEQIGSIIKDIRKKNNLTQNEFASILGVTFQAVSKWENDKSIPDITILKDISNKFNVDLNYLISG | -0.48
34 | HMEQISVPIFTNDELVTFARSYSGELGYKIDDMAVLALYNRISNIQRLDQATTLTEVKDIVDEAVAKSE | -0.63
35 | HMEQLESAVASRTLIGQAQGVIMERYGLSAPNAFSVLSRISQDSNTKLAEVAQQIVATRRIPG | 0.0508
36 | HMEQLNKNIKFDNFLESLNFINKVSEVAEEENHHPDLKFGWGYADITIFTHAIKGLSEGDFVLAAKIDVI | -0.295
37 | HMEQMSLISKKKGERIDKFLGENLGDLSRSYIQKLLKDGLILVNGKKVKANYKLNEGDQIDVEVPDP | 0.407
38 | HMEQMSPYPNPSKGKIQFHNQEPMDIKVFNSLGQIVFEQRILSRAILDLSRLSPGQYIVQAGEQKNIWIK | -0.293
39 | HMEQPPVPSVSITAALGSAVARRLAPHGFQKMPDLVDAYRAGKLAQISGIGGTTLDLIREWLTANARQQ | -0.189
40 | HMEQQEFIVPHDSEGQRLDLFLVSVLGTHSRSQIRKLIVNGHVKLENRAPRPNLPVRAGESVVVSMPEPT | -0.315
41 | HMEQQSIYLENRERMTINQVIDVDAFDEETLWANLKEGAVEISGSGLHIEKLDLAEGVLIVSGIIRAFAYV | -0.423
42 | HMEQQVDYTQFIQDVRQGQIREVDVDRNGVINGIKRSGENFVTVIPGGYDRDLINDLVKQGVNATGEL | 0.14
43 | HMEQVKFFDAKVITTPPNRLKTRYTPAGNLRPEADWLQSGAIVPVYETSGAGWYRIGYQTWASAEWMQRLD | 0.166
44 | HMEQVSDPALLERYAKEVVAASPKAVADYQAGNAKAFQALVGQMMKRTKGKGDPALIREILQKL | 0.143
45 | HMEQVTMSNFLDKWGTSTKSPNAWYTSLSPMQKAEAKLLKEESGLTWNKWYEKNIYVGDGTN | -0.264
46 | HMERAYGVRVSLRLDDPFRTLLGADWSRTHWFASAEERDAALLEMSRKHEFSRPGDQPALVYEKVQN | -0.471
47 | HMERDVNQLTPRERDILKLIAQGLPNKMIARRLDITESTVKVHVKHMLKKMKLKSRVEAAVWVHQERI | 0.0307
48 | HMEREQNILQGREVVERELRRLGLAEAYTVSDIAKALKFDDEEQFLAKVGFGDIQSRQISGAIALMEKN | -0.553
49 | HMERFLENAIPVLGETGLDIKSATEDFENALIRQALHLSGGNKNRAATLLGLKRTTFVEMLKRKSL | -0.398
50 | HMERFMEFVITDTQQGQRLDVVLTETTEHLGSRSHMQRSIRAGLVSIDGITTTRASTKVSSGQIIRVEPT | -0.629

Row | Sequence | soluble fraction (log2)
51 | HMERGEFQKLGRATLEQTLARAGKTLAEVSLKAMLETFAFAAEEDLYEALGRGRVSAAKVGETLFPALKGR | -0.942
52 | HMERKMKNNISDQTTYDTDKILNFNGKGYLNGLVIPNNYQIKEEGYYVFRQVALDGREQILYFTIQDLS | -1.56
53 | HMERLSVSMGDMVVFVRDAVEAFRGLVKEKGITLTFESKVEHFYMNYDHDKVYKVVNNLLSNAVKFT | -1.31
54 | HMERLTVVPELLKRSLSEAQPLVTSARLRLEVSGGAPEDTSRAIVVGQKPPPGTRVQVGTTVIVTVQIQRP | -0.403
55 | HMERPYNGKQMEYHEGGVEKKETLFVEGGLSRVIQWDESGQKRSEVNISPTGVRREQYWDSSGKAIAKPS | 0.0672
56 | HMERQAEAWTNRASALISLGRDEEALEAADRAIELDPRLSKAWIDRSTALSNLGRNDEANEAIQMAMFL | -0.962
57 | HMERQILFTKEDLIEFGLSGGTDSRKRRDVLGHILGIGYSNSKQFLNRLNNFGVTREEFLSAIERIG | -0.454
58 | HMERTVEVVDINDVFSQFLRLYSRERAAGLLSVFKRVEHGLSWQGNPVLLERILSNVFENAIKYAA | -0.424
59 | HMERVIYLLNGREVPAAEIRAAEPEALTVDRFYSSENLPAEYRDRNPELVVAFTAEEPLRHY | -0.559
60 | HMERVNILEKATKDIPNVEVKAFEGLSVNFARENHAQVIVRGLRAVTDFEYELQMAQTNRVLAPDVDTVF | 0.317
61 | HMERYSVQVGSFRNMRYAERLKQELQGEDFPAYIEKSGEFNRVRVGKGLTLEEATQLEQVLRKSGYQTVIV | 0.0226
62 | HMESIGANIRRLRKERNMSQDELARKAFTNRSNINRYESGKMVPSADTTEKIEEALGVPAGTLAQ | -0.638
63 | HMESKDIRYVQLQTVSPEEVLQALALIMPRSDVYVEPTGKLVVLHGSKETLDRAEELILALDNAV | -0.641
64 | HMESKITTAEAAAILNASPQFVRVAMQRGILNIGIAMQMPNSNKWTYNISPKLLGEYSGKNIEYELERLR | -0.692
65 | HMESRTQVYDFYKDLFREKRRPLRAEEMLSALKSQRGIVGVNQYQIIEQHGIVRLSGSGRSALYWDTDLGS | -0.746
66 | HMESSREVSFSEFMKQIDSGRVSSVKLDGETIYVRNSDGTSYKVIQPLGTDLIGVLRKSDIDVQAIKQ | 0.165
67 | HMESYNIVEQVLTKKILSKGNTLAKLSNEFDGLVMLVIRGDEFIIPNGETLLFEKDILVINNGP | -1.2
68 | HMESYTGLAVTEDDDGWSNVRSGNSTSYSILFKIYAGEKFNILSNDGKWSYIDFNGRKGYIHNSIIRKY | 0.31
69 | HMETAADLLAAAKENPARFGILASEGRFGLGYMNDDLLDPDNLVAISREEADDLRGLGVYFHNLD | -0.308
70 | HMETALYVEDLDRAVRFYESVMGLNTMSRGVRLVALDAGEGTVLLLFLRGATTSGASFEGGWIPPH | -0.257
71 | HMETDNEKVRTAFQNGLAAYREQDWDRAEAAFGAVLAEMPEDRPSLVYLERIAHLRKKAPPGAWDGVWI | -1.07
72 | HMETENLSPREREILEYIVKGYSYKMIAADLNIATETVRSHIKKIYKKLQVNSATEAVYKYSN | -0.424
73 | HMETEQVEMIRVVGMHVDEAKKALLDLGLSPEIKYEESSSYDAGTVLRASVQDGLMIDKGTNIVLTVAEA | -0.549
74 | HMETFEKIKELAKKRGKALGQVEEDLGYGRNTLYKIKNSTPNAERIAEIANYFNVSTDYLLGRTDNPTIAK | 0.104
75 | HMETFNMTQKEITRLRVINQAIDKVITIREAAELLGLSERQVIRLKGGVEKFGPAFIIHKNRGRKP | -0.265
